# T1: recombinant human DAF (human, UniProt P08174 35-353, limits assumed)
# T1 construct: also called decay accelerating factor; CD55
# T1 sequence (looked up): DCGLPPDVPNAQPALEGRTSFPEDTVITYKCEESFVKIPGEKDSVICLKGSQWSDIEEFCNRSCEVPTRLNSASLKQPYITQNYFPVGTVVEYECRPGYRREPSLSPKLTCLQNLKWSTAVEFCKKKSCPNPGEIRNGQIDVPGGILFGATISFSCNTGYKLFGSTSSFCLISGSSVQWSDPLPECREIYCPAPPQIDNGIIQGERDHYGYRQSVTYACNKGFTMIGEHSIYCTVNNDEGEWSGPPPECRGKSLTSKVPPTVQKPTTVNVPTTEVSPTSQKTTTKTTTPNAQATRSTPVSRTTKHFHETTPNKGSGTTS
# Biological target: T1, recombinant human DAF
# Assay: SPR (BIACORE 1000), recombinant human DAF on a CM-5 chip, LU30 scFv injected
# Experimental: Affinity Measurements. Kinetic measurements were made by surface plasmon resonance using a BIACORE 1000™ Biosensor (Biacore, AB Uppsala, Sweden). CM-5 chips were functionalized with 350 response units recombinant human DAF in 10 mM sodium acetate (pH 4.6) or 8,000 response units bovine serum albumin as a negative control. The DAF-derivatized chip was saturated with LU30 scFv (25-100 nM) by injecting this fragment at 10 :l/min in PBS containing 0.5% (w/v) bovine serum albumin and 0.05% (v/v) TWEEN 20™. The resultant sensorgrams were analyzed using BIAEVALUATION™ software 3.0.
binder,measurement,value
"LU30 scFv (scFv, V domains shown, Human scFv from a naive phage library, secreted from E. coli and purified through its His tag; also called clone LU30; LU30 scFv fragment; not shown: scFv linker between the domains, domain order, and the His tag) VH: QVKLQESGGGLVQPGGSLKLSCAASGFTFSGYGMSWIRQTPDKRLEWVATINSGGSYTYYSDSVKGRFTISRDNVKNTLYLQMSSLKSEDTAMYYCARRNGTLYYYLMDYWGRGTLVTVSS VL: QSVLTQPPSASGSPGQSVTISCTGTSSDVGGYNYVSWYQQHPGKAPKFMIYDVSKRPSGVSNRFSGSKSGNTASLTISGVQAEDEADYYCSSYTSASTVIFGGGTKLTVL",Kd,13 nM
same,koff,0.0045 s⁻¹
same,kon,340000 M⁻¹ s⁻¹

# Reference: US20080166698A1 (Genentech, published 2008)
